# B1: GST-SHLD3^1-83 (domain or fragment, human, UniProt Q6ZNX1 1-83, looked up)
# chain: MTTEVILHYRPCESDPTQLPKIAEKAIQDFPTRPLSRFIPWFPYDGSKLPLRPKRSPPVISEEAAEDVKQYLTISEHDAKSHS
# notes: SHLD3, human, residues 1-83; also called SHLD3^RBM; source: E. coli LOBSTR, purified; not shown: GST, N-terminal, kept
# B2: REV3^1871-2014 (domain or fragment, human, UniProt O60673 1871-2014, looked up)
# chain: TPRTANILKPLMSPPSREEIMATLLDHDLSETIYQEPFCSNPSDVPEKPREIGGRLLMVETRLANDLAEFEGDFSLEGLRLWKTAFSAMTQNPRPGSPLRSGQGVVNKGSSNSPKMVEDKKIVIMPCKCAPSRQLVQVWLQAKE
# notes: REV3, human, residues 1871-2014 (holds RBM1 1875-1896 and RBM2 1991-2012); The general protocol cleaves the tag; source: E. coli LOBSTR, purified
# B3: SHLD3^1-62 (domain or fragment, human, UniProt Q6ZNX1 1-62, looked up)
# chain: MTTEVILHYRPCESDPTQLPKIAEKAIQDFPTRPLSRFIPWFPYDGSKLPLRPKRSPPVISE
# notes: SHLD3, human, residues 1-62; The general protocol cleaves the tag; also called SHLD3^RBM; source: E. coli LOBSTR, purified
# Assays:
# [1] = target: T1, MBP-REV7^WT (human, UniProt Q9UI95 1-211); assay: pull-down; MBP pull-down of GST-SHLD3^1-83 with MBP-REV7^WT or MBP-REV7^core; conditions: both partners purified
# T1 construct: REV7 (MAD2L2), human; 211 residues printed; wild type; source: E. coli LOBSTR, purified; not shown: hexahistidine-MBP, N-terminal, kept
# [2] = target: T2, REV7^WT (human, UniProt Q9UI95 1-211); assay: SPR; SHLD3^1-62 or REV3^1871-2014 immobilised on an SCR HC30M chip by EDC-NHS coupling; REV7^WT or REV7^R124A injected in two-fold dilutions; buffer B with 0.05% Tween 20; KD estimated from plateau values at the end of the dissociation phase; conditions: both partners purified
# T2 construct: REV7 (MAD2L2), human, HORMA domain protein; 211 residues printed; wild type; also called WT-REV7; MAD2L2; source: E. coli LOBSTR, purified (metal chelating column, tag cleavage, SEC)
# [3] = target: T3, REV7^R124A (human, UniProt Q9UI95 1-211, R124A); assay: as above; conditions: both partners purified
# T3 construct: REV7 (MAD2L2), human; 211 residues printed; R124A; also called R124A-REV7; source: E. coli LOBSTR, purified (metal chelating column, tag cleavage, SEC)
# T3 sequence (Q9UI95 whole entry R124A): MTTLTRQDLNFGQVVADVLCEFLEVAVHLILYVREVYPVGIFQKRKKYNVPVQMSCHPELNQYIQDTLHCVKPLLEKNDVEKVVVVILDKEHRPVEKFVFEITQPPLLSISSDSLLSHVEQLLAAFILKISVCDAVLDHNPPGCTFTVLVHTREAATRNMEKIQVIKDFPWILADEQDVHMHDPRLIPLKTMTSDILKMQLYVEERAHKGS
# [4] = target: REV7^R124A (human, UniProt Q9UI95 1-211, R124A); assay: SPR
# T2 sequence (Q9UI95 whole entry, the tested form may be a part): as the sequence (Q9UI95 whole entry R124A) above, with A124R counted along it
# T1 sequence (Q9UI95 whole entry): as the sequence (Q9UI95 whole entry R124A) above, with A124R counted along it
binder,measurement,setting,value
B1,binding result,[1],binds
B2,binding result,[2],binds
B3,Kd,[2],~38 nM
same,binding result,[3],binds
same,Kd,[4],~67 nM

# Source: article doi:10.1101/2022.06.09.495453, “Molecular insights into human Shieldin complex assembly and recruitment to DSBs” (bioRxiv, 2022)
